In patent US20140357845A1:

How the values were obtained:
Settings in all cases: remark: other sources report otherwise
[1] = molecular target: mini2 cluster11 + 5 (A/Brisbane/59/2007) (influenza A virus H1N1), A8C8J4; experiment: FACS
[2] = molecular target: H1-mini2-cluster1 + 5 + 6-trim (influenza A virus H1N1), A8C8J4; experiment: FACS
[3] = molecular target: mini2-cluster1 + 5 (A/Brisbane/59/2007) (influenza A virus H1N1), A8C8J4; experiment: FACS
[4] = molecular target: mini2-cluster11 + 5 + 6 (A/Brisbane/59/2007) (influenza A virus H1N1), A8C8J4; experiment: FACS
[5] = molecular target: miniHA cluster1 (A/Brisbane/59/2007) (influenza A virus H1N1), A8C8J4; experiment: FACS
[6] = molecular target: T1, s-H1-mini2-cluster1 + 5 + 6-GCN4 (A/Brisbane/59/2007) (influenza A virus H1N1)
[7] = molecular target: T1, s-H1-mini2-cluster1 + 5 + 6-GCN4 …; experiment: BLI steady state titration, 1:1 model

B1: CR6261 (antibody, V domains shown)
VH: EVQLVESGAEVKKPGSSVKVSCKASGGPFRSYAISWVRQAPGQGPEWMGGIIPIFGTTKYAPKFQGRVTITADDFAGTVYMELSSLRSEDTAMYYCAKHMGYQVRETMDVWGKGTTVTVSS
VL: QSVLTQPPSVSAAPGQKVTISCSGSSSNIGNDYVSWYQQLPGTAPKLLIYDNNKRPSGIPDRFSGSKSGTSATLGITGLQTGDEANYYCATWDRRPTAYVVFGGGTKLTVLG
B1 was tested, and the % positive cells [1] was 80%, the MFI relative to full-length HA [1] was 50% and the % positive cells [2] was 80%. It also gave a fold reduction of MFI against SEQ ID NO: 46 [2] of 3 to 4 fold, a % positive cells [3] of 80% and a % positive cells [4] of 80%. The % positive cells [5] was 60%, the MFI relative to full-length HA [5] was 10% and the BLI maximum response [6] was 0.25 nm. The Kd [7] was 190 nM.
